T1: human full-length p50^Cdc37 (residues 1-378) (human), Q16543
T1 chain: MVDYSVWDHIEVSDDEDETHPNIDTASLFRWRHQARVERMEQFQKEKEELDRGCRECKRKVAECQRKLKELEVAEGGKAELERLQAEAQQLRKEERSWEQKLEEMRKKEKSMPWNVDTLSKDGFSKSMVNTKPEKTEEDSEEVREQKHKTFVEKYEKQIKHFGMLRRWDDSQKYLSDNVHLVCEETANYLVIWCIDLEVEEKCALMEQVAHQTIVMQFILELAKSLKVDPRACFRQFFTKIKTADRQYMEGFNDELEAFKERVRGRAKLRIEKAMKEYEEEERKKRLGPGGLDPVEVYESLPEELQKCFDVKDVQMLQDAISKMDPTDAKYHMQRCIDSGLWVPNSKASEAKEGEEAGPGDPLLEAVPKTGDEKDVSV


What was measured:
[1] = biological target: the different Hsp90 proteins; assay: ITC; p50^Cdc37 (200 µM) titrated into Hsp90 (20 µM); 50 mM HEPES pH 7.5, 10 mM MgCl2, 30 °C
[2] = biological target: T1, human full-length p50^Cdc37 (residues …); assay: SEC; analytical Superdex200 10/300 GL, room temperature, 0.3 mL/min; 85 µM protein in 50 mM HEPES pH 7.5, 50 mM KCl, 5 mM MgCl2, 1 mM DTT; fractions on SDS-PAGE; details: remark: other sources report otherwise

Binder | Kd [1] [µM] | stoichiometry N [2]
human full-length p50^Cdc37 (residues 1-378) (natural protein) MVDYSVWDHIEVSDDEDETHPNIDTASLFRWRHQARVERMEQFQKEKEELDRGCRECKRKVAECQRKLKELEVAEGGKAELERLQAEAQQLRKEERSWEQKLEEMRKKEKSMPWNVDTLSKDGFSKSMVNTKPEKTEEDSEEVREQKHKTFVEKYEKQIKHFGMLRRWDDSQKYLSDNVHLVCEETANYLVIWCIDLEVEEKCALMEQVAHQTIVMQFILELAKSLKVDPRACFRQFFTKIKTADRQYMEGFNDELEAFKERVRGRAKLRIEKAMKEYEEEERKKRLGPGGLDPVEVYESLPEELQKCFDVKDVQMLQDAISKMDPTDAKYHMQRCIDSGLWVPNSKASEAKEGEEAGPGDPLLEAVPKTGDEKDVSV | 1.1 to 1.9 | –
human full-length p50^Cdc37 (residues 1-378), Q16543 1-378 (natural protein) MVDYSVWDHIEVSDDEDETHPNIDTASLFRWRHQARVERMEQFQKEKEELDRGCRECKRKVAECQRKLKELEVAEGGKAELERLQAEAQQLRKEERSWEQKLEEMRKKEKSMPWNVDTLSKDGFSKSMVNTKPEKTEEDSEEVREQKHKTFVEKYEKQIKHFGMLRRWDDSQKYLSDNVHLVCEETANYLVIWCIDLEVEEKCALMEQVAHQTIVMQFILELAKSLKVDPRACFRQFFTKIKTADRQYMEGFNDELEAFKERVRGRAKLRIEKAMKEYEEEERKKRLGPGGLDPVEVYESLPEELQKCFDVKDVQMLQDAISKMDPTDAKYHMQRCIDSGLWVPNSKASEAKEGEEAGPGDPLLEAVPKTGDEKDVSV | – | 2

Source: article PMC4601640, “Stability of the Human Hsp90-p50^Cdc37 Chaperone Complex against Nucleotides and Hsp90 Inhibitors, and the Influence of Phosphorylation by Casein Kinase 2” (Molecules, 2015)
